Bridges are numbered along the chain shown (N, C = ends). Where no end group is shown, it is not given here. [ ]: non-standard residue; d: D form. Orn = NCCC[C@H](N)C(=O)O

B1: (cyclo 29-32)[D-Phe11, Glu29, Lys32]-Ucn(11-40) (peptide)
peptide: [dF]HLLRTLLELARTQSQREEAEKNRIIFDSV-NH2
modifications: lactam 19-22; N-terminus assumed
SMILES: CC[C@H](C)[C@H](NC(=O)[C@H](CCCNC(=N)N)NC(=O)[C@H](CC(N)=O)NC(=O)[C@@H]1CCCCNC(=O)CC[C@H](NC(=O)[C@H](CCC(=O)O)NC(=O)[C@H](CCCNC(=N)N)NC(=O)[C@H](CCC(N)=O)NC(=O)[C@H](CO)NC(=O)[C@H](CCC(N)=O)NC(=O)[C@@H](NC(=O)[C@H](CCCNC(=N)N)NC(=O)[C@H](C)NC(=O)[C@H](CC(C)C)NC(=O)[C@H](CCC(=O)O)NC(=O)[C@H](CC(C)C)NC(=O)[C@H](CC(C)C)NC(=O)[C@@H](NC(=O)[C@H](CCCNC(=N)N)NC(=O)[C@H](CC(C)C)NC(=O)[C@H](CC(C)C)NC(=O)[C@H](Cc2c[nH]cn2)NC(=O)[C@H](N)Cc2ccccc2)[C@@H](C)O)[C@@H](C)O)C(=O)N[C@@H](C)C(=O)N[C@@H](CCC(=O)O)C(=O)N1)C(=O)N[C@H](C(=O)N[C@@H](Cc1ccccc1)C(=O)N[C@@H](CC(=O)O)C(=O)N[C@@H](CO)C(=O)N[C@H](C(N)=O)C(C)C)[C@@H](C)CC
B2: (cyclo 29-32) [Ac-Pro3,D-Pro4,D-Phe11, Glu29, Lys32]-hUcn(3-40) (peptide)
peptide: Ac-P[dP]LSIDLT[dF]HLLRTLLELARTQSQREEAEKNRIIFDSV-NH2
modifications: lactam 27-30
SMILES: CC[C@H](C)[C@H](NC(=O)[C@H](CO)NC(=O)[C@H](CC(C)C)NC(=O)[C@H]1CCCN1C(=O)[C@@H]1CCCN1C(C)=O)C(=O)N[C@@H](CC(=O)O)C(=O)N[C@@H](CC(C)C)C(=O)N[C@H](C(=O)N[C@H](Cc1ccccc1)C(=O)N[C@@H](Cc1c[nH]cn1)C(=O)N[C@@H](CC(C)C)C(=O)N[C@@H](CC(C)C)C(=O)N[C@@H](CCCNC(=N)N)C(=O)N[C@H](C(=O)N[C@@H](CC(C)C)C(=O)N[C@@H](CC(C)C)C(=O)N[C@@H](CCC(=O)O)C(=O)N[C@@H](CC(C)C)C(=O)N[C@@H](C)C(=O)N[C@@H](CCCNC(=N)N)C(=O)N[C@H](C(=O)N[C@@H](CCC(N)=O)C(=O)N[C@@H](CO)C(=O)N[C@@H](CCC(N)=O)C(=O)N[C@@H](CCCNC(=N)N)C(=O)N[C@@H](CCC(=O)O)C(=O)N[C@H]1CCC(=O)NCCCC[C@@H](C(=O)N[C@@H](CC(N)=O)C(=O)N[C@@H](CCCNC(=N)N)C(=O)N[C@H](C(=O)N[C@H](C(=O)N[C@@H](Cc2ccccc2)C(=O)N[C@@H](CC(=O)O)C(=O)N[C@@H](CO)C(=O)N[C@H](C(N)=O)C(C)C)[C@@H](C)CC)[C@@H](C)CC)NC(=O)[C@H](CCC(=O)O)NC(=O)[C@H](C)NC1=O)[C@@H](C)O)[C@@H](C)O)[C@@H](C)O
B3: (cyclo 29-32) [D-Tyr11, Glu29, Lys32]-Ucn(11-40) (peptide)
peptide: [dY]HLLRTLLELARTQSQREEAEKNRIIFDSV-NH2
modifications: lactam 19-22; N-terminus assumed
SMILES: CC[C@H](C)[C@H](NC(=O)[C@H](CCCNC(=N)N)NC(=O)[C@H](CC(N)=O)NC(=O)[C@@H]1CCCCNC(=O)CC[C@H](NC(=O)[C@H](CCC(=O)O)NC(=O)[C@H](CCCNC(=N)N)NC(=O)[C@H](CCC(N)=O)NC(=O)[C@H](CO)NC(=O)[C@H](CCC(N)=O)NC(=O)[C@@H](NC(=O)[C@H](CCCNC(=N)N)NC(=O)[C@H](C)NC(=O)[C@H](CC(C)C)NC(=O)[C@H](CCC(=O)O)NC(=O)[C@H](CC(C)C)NC(=O)[C@H](CC(C)C)NC(=O)[C@@H](NC(=O)[C@H](CCCNC(=N)N)NC(=O)[C@H](CC(C)C)NC(=O)[C@H](CC(C)C)NC(=O)[C@H](Cc2c[nH]cn2)NC(=O)[C@H](N)Cc2ccc(O)cc2)[C@@H](C)O)[C@@H](C)O)C(=O)N[C@@H](C)C(=O)N[C@@H](CCC(=O)O)C(=O)N1)C(=O)N[C@H](C(=O)N[C@@H](Cc1ccccc1)C(=O)N[C@@H](CC(=O)O)C(=O)N[C@@H](CO)C(=O)N[C@H](C(N)=O)C(C)C)[C@@H](C)CC
B4: (cyclo 29-32) [D-Phe11, Glu29, D-Glu31, Lys32]-Ucn(11-40) (peptide)
peptide: [dF]HLLRTLLELARTQSQREEA[dE]KNRIIFDSV-NH2
modifications: lactam 19-22; N-terminus assumed
SMILES: CC[C@H](C)[C@H](NC(=O)[C@H](CCCNC(=N)N)NC(=O)[C@H](CC(N)=O)NC(=O)[C@@H]1CCCCNC(=O)CC[C@H](NC(=O)[C@H](CCC(=O)O)NC(=O)[C@H](CCCNC(=N)N)NC(=O)[C@H](CCC(N)=O)NC(=O)[C@H](CO)NC(=O)[C@H](CCC(N)=O)NC(=O)[C@@H](NC(=O)[C@H](CCCNC(=N)N)NC(=O)[C@H](C)NC(=O)[C@H](CC(C)C)NC(=O)[C@H](CCC(=O)O)NC(=O)[C@H](CC(C)C)NC(=O)[C@H](CC(C)C)NC(=O)[C@@H](NC(=O)[C@H](CCCNC(=N)N)NC(=O)[C@H](CC(C)C)NC(=O)[C@H](CC(C)C)NC(=O)[C@H](Cc2c[nH]cn2)NC(=O)[C@H](N)Cc2ccccc2)[C@@H](C)O)[C@@H](C)O)C(=O)N[C@@H](C)C(=O)N[C@H](CCC(=O)O)C(=O)N1)C(=O)N[C@H](C(=O)N[C@@H](Cc1ccccc1)C(=O)N[C@@H](CC(=O)O)C(=O)N[C@@H](CO)C(=O)N[C@H](C(N)=O)C(C)C)[C@@H](C)CC
B5: (cyclo 29-32) [Ac-Pro3,D-Phe11, Glu29, D-Glu31, Lys32]-hUcn(3-40) (peptide)
peptide: Ac-PSLSIDLT[dF]HLLRTLLELARTQSQREEA[dE]KNRIIFDSV-NH2
modifications: lactam 27-30
SMILES: CC[C@H](C)[C@H](NC(=O)[C@H](CO)NC(=O)[C@H](CC(C)C)NC(=O)[C@H](CO)NC(=O)[C@@H]1CCCN1C(C)=O)C(=O)N[C@@H](CC(=O)O)C(=O)N[C@@H](CC(C)C)C(=O)N[C@H](C(=O)N[C@H](Cc1ccccc1)C(=O)N[C@@H](Cc1c[nH]cn1)C(=O)N[C@@H](CC(C)C)C(=O)N[C@@H](CC(C)C)C(=O)N[C@@H](CCCNC(=N)N)C(=O)N[C@H](C(=O)N[C@@H](CC(C)C)C(=O)N[C@@H](CC(C)C)C(=O)N[C@@H](CCC(=O)O)C(=O)N[C@@H](CC(C)C)C(=O)N[C@@H](C)C(=O)N[C@@H](CCCNC(=N)N)C(=O)N[C@H](C(=O)N[C@@H](CCC(N)=O)C(=O)N[C@@H](CO)C(=O)N[C@@H](CCC(N)=O)C(=O)N[C@@H](CCCNC(=N)N)C(=O)N[C@@H](CCC(=O)O)C(=O)N[C@H]1CCC(=O)NCCCC[C@@H](C(=O)N[C@@H](CC(N)=O)C(=O)N[C@@H](CCCNC(=N)N)C(=O)N[C@H](C(=O)N[C@H](C(=O)N[C@@H](Cc2ccccc2)C(=O)N[C@@H](CC(=O)O)C(=O)N[C@@H](CO)C(=O)N[C@H](C(N)=O)C(C)C)[C@@H](C)CC)[C@@H](C)CC)NC(=O)[C@@H](CCC(=O)O)NC(=O)[C@H](C)NC1=O)[C@@H](C)O)[C@@H](C)O)[C@@H](C)O
B6: (cyclo 29-32) [Ac-Pro3,D-Ser4,D-Phe11, Glu29, Lys32]-hUcn(3-40) (peptide)
peptide: Ac-P[dS]LSIDLT[dF]HLLRTLLELARTQSQREEAEKNRIIFDSV-NH2
modifications: lactam 27-30
SMILES: CC[C@H](C)[C@H](NC(=O)[C@H](CO)NC(=O)[C@H](CC(C)C)NC(=O)[C@@H](CO)NC(=O)[C@@H]1CCCN1C(C)=O)C(=O)N[C@@H](CC(=O)O)C(=O)N[C@@H](CC(C)C)C(=O)N[C@H](C(=O)N[C@H](Cc1ccccc1)C(=O)N[C@@H](Cc1c[nH]cn1)C(=O)N[C@@H](CC(C)C)C(=O)N[C@@H](CC(C)C)C(=O)N[C@@H](CCCNC(=N)N)C(=O)N[C@H](C(=O)N[C@@H](CC(C)C)C(=O)N[C@@H](CC(C)C)C(=O)N[C@@H](CCC(=O)O)C(=O)N[C@@H](CC(C)C)C(=O)N[C@@H](C)C(=O)N[C@@H](CCCNC(=N)N)C(=O)N[C@H](C(=O)N[C@@H](CCC(N)=O)C(=O)N[C@@H](CO)C(=O)N[C@@H](CCC(N)=O)C(=O)N[C@@H](CCCNC(=N)N)C(=O)N[C@@H](CCC(=O)O)C(=O)N[C@H]1CCC(=O)NCCCC[C@@H](C(=O)N[C@@H](CC(N)=O)C(=O)N[C@@H](CCCNC(=N)N)C(=O)N[C@H](C(=O)N[C@H](C(=O)N[C@@H](Cc2ccccc2)C(=O)N[C@@H](CC(=O)O)C(=O)N[C@@H](CO)C(=O)N[C@H](C(N)=O)C(C)C)[C@@H](C)CC)[C@@H](C)CC)NC(=O)[C@H](CCC(=O)O)NC(=O)[C@H](C)NC1=O)[C@@H](C)O)[C@@H](C)O)[C@@H](C)O

The first test addresses CRF receptors on anterior pituitary cells in culture. Nature of the test: cell-based or functional assay.
Conditions: not given
In turn, B1 registered an antagonism of ACTH secretion under a challenge dose of ovine CRF, potency relative to the Standard Antagonist (times Standard Antagonist) of 10.3.

The molecule B2 gave an ACTH secretion, anterior pituitary cell cultures, potency relative to r/hCRF of 9.9 times r/hCRF.

As to B3, the antagonism of ACTH secretion under a challenge dose of ovine CRF, potency relative to the Standard Antagonist (times Standard Antagonist) amounted to 4.01.

Turning to B4, the antagonism of ACTH secretion under a challenge dose of ovine CRF, potency relative to the Standard Antagonist (times Standard Antagonist) turned out to be 4.72.

B5 had an ACTH secretion, anterior pituitary cell cultures, potency relative to r/hCRF of 6.14 times r/hCRF.

Consider B6, for which the ACTH secretion, anterior pituitary cell cultures, potency relative to r/hCRF was found to be 5.69 times r/hCRF.

[dY]DNPSLSIDLTFHLLRTLLELARTQSQRERAEQNRIIFDSV-NH2 [[D-Tyr0]hUcn(1-40)] came in with an ACTH secretion, anterior pituitary cell cultures, potency relative to r/hCRF of 1.23 times r/hCRF.

The subject of the next test is mammalian mean arterial blood pressure. Nature of the test: in vivo test measuring elevation of mean arterial blood pressure as a result of iv injection. To be noted: result in words; indicative of a Ucn antagonist. The source says: The peptide, Ucn(11-40), having the amino acid sequence (see SEQ ID NO: 8): […] is synthesized in the manner described in Example I. To evaluate the biological activity of a candidate peptide as a Ucn antagonist (which will be indicative of its effective binding to CRF receptors), the previously mentioned assay from Endocrinology, 91, supra, is run in the presence of a challenge dose of ovine CRF. […] An in vivo test measuring elevation of mean arterial blood pressure as a result of iv injection is also simply and straightforwardly performed.
In the case of “H-Phe-His-Leu-Leu-Arg-Thr-Leu-Leu-Glu-Leu-Ala-Arg-Thr-Gln-Ser-Gln-Arg-Glu-Arg-Ala-Glu-Gln-Asn-Arg-Ile-Ile-Phe-Asp-Ser-Val-NH2 (H-FHLLRTLLELARTQSQRERAEQNRIIFDSV-NH2) [Ucn(11-40)]”, the “vasoconstrictive activity causing elevation of mean arterial blood pressure” value is “significant mammalian vasoconstrictive activity”.

For “H-[dY]HLLRTLLELARTQSQREEA[dE]KNRIIFDSV-NH2”, the “vasoconstrictive activity causing elevation of mean arterial blood pressure” value is reported as “significant mammalian vasoconstrictive activity”.

Regarding “H-[dF]HLLRTLLELARTQSQREEA[dR][Orn]NRIIFDSV-NH2”, the “vasoconstrictive activity causing elevation of mean arterial blood pressure” value is “significant mammalian vasoconstrictive activity”.

With H-[dF]HLLRTLLELARTQSQREKAEENRIIFDSV-NH2, the “vasoconstrictive activity causing elevation of mean arterial blood pressure” value is given as “significant mammalian vasoconstrictive activity”.

“H-[dF]HLLRTLLELARTQSQREKA[dE]ENRIIFDSV-NH2”: the “vasoconstrictive activity causing elevation of mean arterial blood pressure” value is on record as “significant mammalian vasoconstrictive activity”.

Turning to “H-[dY]HLLRTLLELARTQSQRERAEQNRIIFDSV-NH2 [[D-Tyr^11]-Ucn(11-40)]”, the “vasoconstrictive activity causing elevation of mean arterial blood pressure” value is “significant mammalian vasoconstrictive activity”.

(Values after patent US20030032587A1, “Urocortin peptides” (The Salk Institute for Biological Studies, priority 1995, published 2003).)
